Measured values taken from article PMC3582033 (Cell, 2011).

Test system: HP1γ binding to H3 peptide containing K9me3 as the sole modification
Assay: TRIM33 competition with HP1γ for H3 peptide, K9me3 only
Conditions: 3-fold molar excess of TRIM33

B1: TRIM33: Flag-tagged TRIM33 protein (protein)
chain: MAENKGGGEAESGGGGSGSAPVTAGAAGPTAQEAEPPLAAVLVEEEEEEGGRAGAEGGAAGPDDGGVAAASSSSAPAASVPAASVGSAVPGGAASTPAPAAAPAPAPAPAPAPAPAPAPAPAPGSSSGPPLGPPASLLDTCAVCQQSLQSRREAEPKLLPCLHSFCLRCLPEPERQLSVPIPGGSNGDVQQVGVIRCPVCRQECRQIDLVDNYFVKDTSEAPSSSDEKSEQVCTSCEDNASAVGFCVECGEWLCKTCIEAHQRVKFTKDHLIRKKEDVSESVGTSGQRPVFCPVHKQEQLKLFCETCDRLTCRDCQLLEHKEHRYQFLEEAFQNQKGAIENLLAKLLEKKNYVHFAATQVQNRIKEVNETNKRVEQEIKVAIFTLINEINKKGKSLLQQLENVTKERQMKLLQQQNDITGLSRQVKHVMNFTNWAIASGSSTALLYSKRLITFQLRHILKARCDPVPAANGAIRFHCDPTFWAKNVVNLGNLVIESKPAPGYTPNVVVGQVPPGTNHISKTPGQINLAQLRLQHMQQQVYAQKHQQLQQMRLQQPPAPIPTTTATTQQHPRQAAPQMLQQQPPRLISVQTMQRGNMNCGAFQAHQMRLAQNAARIPGIPRHSAPQYSMMQPHLQRQHSNPGHAGPFPVVSAHNPINPTSPTTATMANANRGPTSPSVTAIELIPSVTNPENLPSLPDIPPIQLEDAGSSSLDNLLSRYISGSHLPPQPTSTMNPSPGPSALSPGSSGLSNSHTPVRPPSTSSTGSRGSCGSSGRTAEKSAHSFKSDQVKVKQEPGTEEEICSFSGAVKQEKTEDGRRSACMLSSPESSLTPPLSTNLHLESELDTLTGLENHVKTEPTDISESCKQSGLSNLVNGKSPIRNLMHRSARIGGDGNSKDDDPNEDWCAVCQNGGDLLCCEKCPKVFHLTCHVPTLLSFPSGDWICTFCRDIGKPEVEYDCDNMQHSKKGKTAQGLSPVDQRKCERLLLYLYCHELSIEFQEPVPVSIPNYYKIIKKPMDLSTVKKKLQKKHSQHYQIPDDFVADVRLIFKNCERFNEMMKVVQVYADTQEINLKGDSEVAKAGKAVALYFEDKLSEIYSDRTFTPLPEFEQDEDDGEVTEDSDEDFIQPRRKRLKSDERPVHIK
competition with HP1γ: ineffective at competing with HP1γ
